B1: 273 (protein)
chain: LDNGLARTPTMGWLHWERFMCNLDCQEEPDSCISEKLFMEMAERMVSEGWKDAGYEYLCIDDCWMAPQRDSEGRLQADPQRFPHGIRQLANYVHSKGLKLGIYADVGNKTCAGFPGSFGYYDIDAQTFADWGVDLLKFDGCYCDSLENLADGYKHMSLALNRTGRSIVYSCEWPLYMWPFQKPNYTEIRQYCNHWRNFADIDDSWASIKSILDWTSFNQERIVDVAGPGGWNDPDMLVIGNFGLSWNQQVTQMALWAIMAAPLFMSNDLRHISPQAKALLQDKDVIAINQDPLGKQGYQLRQGDNFEVWERPLSGLAWAVAMINRQEIGGPRSYTIAVASLGKGVACNPACFITQLLPVKRKLGFYDWDSRLRSHINPTGTVLLQLENTMQMSLKDLL
modifications: Synthetic Polypeptide sequence of Variant No. 273 of mature Human GLA
B2: 274 (protein)
chain: LDNGLARTPTMGWLHWERFMCNLDCQEEPDSCISEKLFMEMAERMVSEGWKDAGYEYLCIDDCWMAPQRDSEGRLQADPQRFPHGIRQLANYVHSKGLKLGIYADVGNKTCAGFPGSFGYYDIDAQTFADWGVDLLKFDGCYCDSLENLADGYKHMSLALNRTGRSIVYSCEWPLYMWPFQKPNYTEIRQYCNHWRNFADIDDSWASIKSILDWTSRNQERIVDVAGPGGWNDPDMLVIGNFGLSWNQQVTQMALWAIMAAPLFMSNDLRHISPQAKALLQDKDVIAINQDPLGKQGYQLRQGDNFEVWERPLSGLAWAVAMINRQEIGGPRSYTIAVASLGKGVACNPGCFITQLLPVKRKLGFYEWTSRLRSHINPTGTVLLQLENTMQMSLKDLL
modifications: Synthetic Polypeptide sequence of Variant No. 274 of mature Human GLA
B3: 277 (protein)
chain: LDNGLARTPTMGWLHWERFMCNLDCQEEPDSCISEKLFMEMAERMVSEGWKDAGYEYLCIDDCWMAPQRDSEGRLQADPQRFPHGIRQLANYVHSKGLKLGIYADVGNKTCAGFPGSFGYYDIDAQTFADWGVDLLKFDGCYCDSLENLADGYKHMSLALNRTGRSIVYSCEWPLYMWPFQKPNYTEIRQYCNHWRNFADIDDSWASIKSILDWTSRNQERIVDVAGPGGWNDPDMLVIGNFGLSWDQQVTQMALWAIMAAPLFMSNDLRHISPQAKALLQDKDVIAINQDPLGKQGYQLRQGDNFEVWERPLSGDAWAVAMINRQEIGGPRSYTIPVASLGKGVACNPACFITQLLPVKRKLGFYDWDSRLRSHINPTGTVLLQLENTMQMSLKDLL
modifications: Synthetic Polypeptide sequence of Variant No. 277 of mature Human GLA
B4: 276 (protein)
chain: LDNGLARTPTMGWLHWERFMCNLDCQEEPDSCISEKLFMEMAERMVSEGWKDAGYEYLCIDDCWMAPQRDSEGRLQADPQRFPHGIRQLANYVHSKGLKLGIYADVGNKTCAGFPGSFGYYDIDAQTFADWGVDLLKFDGCYCDSLENLADGYKHMSLALNRTGRSIVYSCEWPLYMWPFQKPNYTEIRQYCNHWRNFADIDDSWASIKSILDWTSRNQERIVDVAGPGGWNDPDMLVIGNFGLSWDQQVTQMALWAIMAAPLFMSNDLRHISPQAKALLQDKDVIAINQDPLGKQGYQLRQGDNFEVWERPLSGDAWAVAMINRQEIGGPRSYTIPVASLGKGVACNPGCFITQLLPVKRKLGFYDWDSRLRSHINPTGTVLLQLENTMQMSLKDLL
modifications: Synthetic Polypeptide sequence of Variant No. 276 of mature Human GLA
B5: 275 (protein)
chain: LDNGLARTPTMGWLHWERFMCNLDCQEEPDSCISEKLFMEMAERMVSEGWKDAGYEYLCIDDCWMAPQRDSEGRLQADPQRFPHGIRQLANYVHSKGLKLGIYADVGNKTCAGFPGSFGYYDIDAQTFADWGVDLLKFDGCYCDSLENLADGYKHMSLALNRTGRSIVYSCEWPLYMWPFQKPNYTEIRQYCNHWRNFADIDDSWASIKSILDWTSRNQERIVDVAGPGGWNDPDMLVIGNFGLSWDQQVTQMALWAIMAAPLFMSNDLRHISPQAKALLQDKDVIAINQDPLGKQGYQLRQGDNFEVWERPLSGLAWAVAMINRQEIGGPRSYTIPVASLGKGVACNPACFITQLLPVKRKLGFYEWTSRLRSHINPTGTVLLQLENTMQMSLKDLL
modifications: Synthetic Polypeptide sequence of Variant No. 275 of mature Human GLA
B6: 278 (protein)
chain: LDNGLARTPTMGWLHWERFMCNLDCQEEPDSCISEKLFMEMAERMVSEGWKDAGYEYLCIDDCWMAPQRDSEGRLQADPQRFPHGIRQLANYVHSKGLKLGIYADVGNKTCAGFPGSFGYYDIDAQTFADWGVDLLKFDGCYCDSLENLADGYKHMSLALNRTGRSIVYSCEWPLYMWPFQKPNYTEIRQYCNHWRNFADIDDSWASIKSILDWTSRNQERIVDVAGPGGWNDPDMLVIGNFGLSWDQQVTQMALWAIMAAPLFMSNDLRHISPQAKALLQDKDVIAINQDPLGKQGYQLRQGDNFEVWERPLSGDAWAVAMINRQEIGGPRSYTIAVASLGKGVACNPGCFITQLLPVKRKLGFYDWDSRLRSHINPTGTVLLQLENTMQMSLKDLL
modifications: Synthetic Polypeptide sequence of Variant No. 278 of mature Human GLA

Legend:
Type in all cases: biochemical
[1] = HTP-analysis of supernatants pretreated with acid (MUGal hydrolysis); conditions: challenge at pH 4.2; activity of the variant/activity of Rd2BB (SEQ ID NO: 10); yeast culture supernatant
How it was run: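 Supernatants from INVSc1 yeast secreting GLA variants were challenged at 37° C. for 1-3 h in McIlvaine buffer at pH 3.3-4.3. Residual activity was then measured on 4 mM MUGal substrate stock at pH 4.8 with citrate buffer pH 4.3, over 30-180 min at 37° C. Reactions were quenched with sodium carbonate and read by fluorescence (Ex 355/Em 448 nm).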

[2] = HTP-analysis of yeast culture supernatants, no challenge (MUGal hydrolysis); conditions: activity of the variant/activity of Rd2BB (SEQ ID NO: 10), yeast culture supernatant
How it was run: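 Activity read as 4-methylumbelliferyl α-D-galactopyranoside hydrolysis: fluorescence (355/448 nm) after sodium carbonate stop, following 30-180 min at 37° C with 2 mM MUGal stock at pH 4.6–4.8. Enzyme source is unchallenged culture supernatant of INVSc1 yeast expressing GLA variants, grown 66-84 h at 30° C.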

[3] = HTP-analysis of supernatants pretreated with base (MUGal hydrolysis); conditions: challenge at pH 7.6; activity of the variant/activity of Rd2BB (SEQ ID NO: 10); yeast culture supernatant
How it was run: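 GLA variants were secreted by transformed INVSc1 yeast grown 66-84 h at 30° C. Supernatants were exposed to neutral-to-basic buffers (pH 7.0-9.7) at 37° C for 1-18 h, then assayed with MUGal in acidic citrate/McIlvaine buffer, with fluorescence read after quenching.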

[4] = HTP-analysis of supernatants pretreated with bovine serum (MUGal hydrolysis); conditions: activity of the variant/activity of Rd2BB (SEQ ID NO: 10), yeast culture supernatant
How it was run: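 Yeast INVSc1 culture supernatants containing secreted GLA variants were mixed with bovine serum (20:80) and held 1 h at 37° C. Serum-treated samples then reacted with MUGal (4 mM stock) in citrate/McIlvaine buffer (pH 4.3/4.8) for 180 min at 37° C., were quenched with sodium carbonate, and read by fluorescence (Ex 355, Em 448 nm).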

Molecule | Relative Activity of GLA Variants After Challenge at pH 4.2 [1] | Relative Activity of GLA Variants After No Challenge (NC) [2] | Relative Activity of GLA Variants After Challenge at pH 7.6 [3] | Relative Activity of GLA Variants After Challenge with Serum [4]
B1 | + (+ = 0.5 to 1.5 relative activity over Rd2BB (SEQ ID NO: 10)) | + (+ = 0.5 to 1.5 relative activity over Rd2BB (SEQ ID NO: 10)) | + (+ = 0.5 to 1.5 relative activity over Rd2BB (SEQ ID NO: 10)) | + (+ = 0.5 to 1.5 relative activity over Rd2BB (SEQ ID NO: 10))
B2 | + (+ = 0.5 to 1.5 relative activity over Rd2BB (SEQ ID NO: 10)) | + (+ = 0.5 to 1.5 relative activity over Rd2BB (SEQ ID NO: 10)) | + (+ = 0.5 to 1.5 relative activity over Rd2BB (SEQ ID NO: 10)) | + (+ = 0.5 to 1.5 relative activity over Rd2BB (SEQ ID NO: 10))
B3 | +++ (+++ = >2.5 relative activity over Rd2BB (SEQ ID NO: 10)) | +++ (+++ = >2.5 relative activity over Rd2BB (SEQ ID NO: 10)) | +++ (+++ = >2.5 relative activity over Rd2BB (SEQ ID NO: 10)) | +++ (+++ = >2.5 relative activity over Rd2BB (SEQ ID NO: 10))
B4 | +++ (+++ = >2.5 relative activity over Rd2BB (SEQ ID NO: 10)) | +++ (+++ = >2.5 relative activity over Rd2BB (SEQ ID NO: 10)) | +++ (+++ = >2.5 relative activity over Rd2BB (SEQ ID NO: 10)) | +++ (+++ = >2.5 relative activity over Rd2BB (SEQ ID NO: 10))
B5 | ++ (++ = 1.5 to 2.5 relative activity over Rd2BB (SEQ ID NO: 10)) | ++ (++ = 1.5 to 2.5 relative activity over Rd2BB (SEQ ID NO: 10)) | ++ (++ = 1.5 to 2.5 relative activity over Rd2BB (SEQ ID NO: 10)) | ++ (++ = 1.5 to 2.5 relative activity over Rd2BB (SEQ ID NO: 10))
B6 | +++ (+++ = >2.5 relative activity over Rd2BB (SEQ ID NO: 10)) | +++ (+++ = >2.5 relative activity over Rd2BB (SEQ ID NO: 10)) | +++ (+++ = >2.5 relative activity over Rd2BB (SEQ ID NO: 10)) | +++ (+++ = >2.5 relative activity over Rd2BB (SEQ ID NO: 10))

— patent publication US11278600B2, “Human alpha-galactosidase variants” (Codexis, Inc., priority 2014, dated 2022)
